Source: patent US20110020218A1

Target: constitutively active mutant (CAM) Asn119Ser CXCR4 receptor (human) (UniProt P61073)
Test: cell-based or functional assay

Chain of constitutively active mutant (CAM) Asn119Ser CXCR4 receptor (human) (P61073 whole entry N119S): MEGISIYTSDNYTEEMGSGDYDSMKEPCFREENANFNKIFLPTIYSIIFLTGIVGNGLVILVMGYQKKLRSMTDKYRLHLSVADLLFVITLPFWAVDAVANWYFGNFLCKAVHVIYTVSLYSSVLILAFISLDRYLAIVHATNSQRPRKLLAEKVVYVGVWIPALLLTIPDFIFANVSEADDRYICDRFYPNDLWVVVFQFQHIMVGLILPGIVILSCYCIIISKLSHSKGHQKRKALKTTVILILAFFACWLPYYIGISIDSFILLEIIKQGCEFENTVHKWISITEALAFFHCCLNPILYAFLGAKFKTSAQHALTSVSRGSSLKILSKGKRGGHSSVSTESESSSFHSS

T140 (peptide) showed an inhibition of SDF-1-stimulated [35S]GTPγS binding of -159% and an inhibition of basal [35S]GTPγS binding of -17%.
